# Assay results published in a protein production outcome set (Wang et al. 2014).
# Assay: label from the status in PepcDB records
row,Sequence,protein production
1,MALPASTPPRAKKRFAWIRTLRWYWWLLLFILLGYGLSHIMHWDDRGLLWLKERFESNEERSASIWLPDYHVEIDAKALPGMEKDEASDLSYNPISKTLFAVMGKNAFLVELTLKGDVLRKIPLVGWSNPEGVAVMNDGLIAITDERQHQLTIVKVTADTTTLNIADFPHYELGTSANKNKGFEGVAWDPRRQQLLLGEERPPALYTWKSDGSNVLKGDKQSLLSRALDMRNLSSLSIDPRTGHMLALSADSHMLLEVDEQGNQVSFMTLLGGMNGLKDTIPRAEGVALDEAGTLYMVSEPNLFYSFRKQ,failed
2,MASASFSAVSSLSYQFRSKEAIFSSKASCFSSTALSGRRVFGSIKAAQVTSHENPRRRTQNVEGDIFVDNTCIDCDTCRWMVPDLFTRVDNMSAVTKQPTCKEERLNALQALLSCPTGSIRTQTPPADIGEAQETFPLVVDKDTLPGVFHCGFHSKKSYGATSYLILHREGNILVDSPRYVEKLAGKIEMKGGVRYMFLTHRDDVADHKKWADRFKSTRILHSDDVEPSTSDVELKLEGSGPWSIYEDVELIHTPGHSEGSVCMFHKSLKALFTGDHVIMTESGLSILEQYNHGSVPLQLENVEKLINLDFNWLIPGHGRRVHFKDGDEKAKNLEALVQKHREKQLVSFSKSGKA,failed
3,MKLSSLLNSENSEKNHLQIQQSGQRRIDRMAQSGVGKSSLWSLAEVGWTAGPVTFLAAQGGYYLGFGTWLPNENLIFFVGYTVLMGLIAVLVKFIYKATKGQELDDAKEQLLLVIGSLPDFILSVRDLTLSRMEPESRRYESARILLQKSDLGPQWLTLAVNSIIDSPVIAQAVANIEIYWRAGMYSRIHDINQELSTEISAALASLEPDRPRLARLLEQRLQGKKNTLRSGVEREPFFIERIFSAIEEDNEDIMGLSDVEEVLTLAFELLSGRRIPMLVVNCVGSSQLTIATKKLEKERSKYRIARARGYSQLLALANFLSDSNLLDYSTVAERLPSSDLLQICLETIDRLCQNICDDIGCVQKRENVDMRALKLNHSVLIKALELYQQAYRSSAMVLNEHADFLKDINSWQRINLKYADANTKVSVTGKQGLHIIERQIQLTDADKITVVKKIAHHFDSQSILSKGLRNRTQQSNWQVSNQHVRAAKQLAIDLALALNPCVFISLPEVQGAIYSSNAVDLGSFEPGLSTTTKVGWGESVAKEVKKDMVKASEQIAQAIHRYYGICLGDKELDFMHQTYGMNKEHVIDYYLENEQGEQSSNVFEPRSPLMIPEVKFAWRKTLTLYRQHI,failed
4,SESQDIKALQKELEQFAKLLKQKRITLGYTQADVGLTLGVLFGKVFSQTTICRFEALQLSFKNMCKLRPLLQKWVEEADNNENLQEICKAETLVQARKRKRTSIENRVRGNLENLFLQCPKPTLQQISHIAQQLGLEKDVVRVWFCNRRQKGKRSSSDYAQ,not failed
5,MPKTLIILAHPNISQSTVHKHWSDAVRQHTDRFTVHELYAVYPQGKIDVAAEQKLIETHDSLVWQFPIYWFNCPPLLKQWLDEVLTYGWAYGSKGKALKGRKIALAVSLGAPAADYRADGAVGCSVAEVLRPFELTAKYCNADYRPPFTFHTIDSNAGYSEAARQEVERSARDYLAWLDALEHHHHHH,not failed
6,DGQTYQIGFEMRLPVSWNGRFLYQGNGGTDGNIATATGQVGSGGMLSNALKDGFAVISSDAGHSSAQNPLFGLDPQARINYGYGAITKLTPMAKDLIKTAYGKLPDRSYAGGTSNGGRHAMMAATRLGDQYDGILASTPGFHLPRAAAAQLYTAQQLRRVATDENDLSTALTYAERNVLANAILTRCDALDGVADGMVQDVEACRTAFDIHKDVPVCSGSRDGSCLSKDQIDVVANIYRGPVNSSGEALYATQPYDPGLLGSNWASWKFVSSVGTARDPVAVGIIFQVPPDPTIVQNSRKFAFNYNFDTDYPKLSATNSTYSESAMSFMIPPDELNLDKLRLHGGKMIVVQGTADGVFSVDDTQNWYDKLMAKYKSSSLGDAQSFARFYRVPGMNHSRGGLATDQFDALTALVNWVEYGQA,failed
7,MSDKFHILLLNGPNLNLLGTREPEKYGYTTLAEIVSQLEIQAQGMDVALSHLQSNAEHALIDSIHQARGNTDFILINPAAFTHTSVALRDALLGVQIPFIEIHLSNVHAREPFRHHSYLSDIAVGVICGLGADGYNFALQAAVNRLSKSN,not failed
8,MKRAFAAVAATVCLFLLVQLGSLALVEPFMSAGFQAVEDPSDPTNSLLYIIAILVATGVMLAAMKFGVDRLLQGLVLFAAVFISFYVFTVVVPPVVAVAGLNLVAVALALALGVGLLVYPEWYVIDAAGIVMGAGAAGLFGISFGLLPALVLLVVLAVYDAISVYGTEHMLALASGAMDLRLPVIFVVPLTLSYSFLDADNPESLEDDTPESDAEAEPDEGDDVSTATGDAEPVDTMAEDADTDADSDADADDPAAAEAAPDEHADPFARDAFFIGLGDAVIPTILVASAAFFRPGGVELLSVPGIALTVPALGAMVGTIAGLLALMWFVMKGRAHAGLPLLNGGAIAGYLLGAAAVGIPVVEALGVAPYL,failed
9,MEAPKMALSDVKCRNARPASKLVKLSDGGGLQLWVQPTGSRLWRLAYRFGGKQKLLALGSYPLISLAEAREARDTAKRLLLRGIDPAQERKSQKASAEDTFRSIAEDYVDKLKKEGRADRTITKVKWLLDFAYPTFGDKSVREIDPATILAALRSVEVRGRYESARRMRSTIGSVFRYAIATARADVDPTIALRGALVGPTVTPRAAVTDPKALGGLLRAINAFDGQPTTRAALKLMALLFPRPGELRAAGWDEFDFESSVWSIPEGRMKMRRPHRVPLSTQAVSVLTSLREISGGGSLLFPSVRSGSRPISDNTLNAALRRMGYGKEEATAHGFRATASTLLNECGKWHPDAVERQLAHIENNDVRRAYARAEHWEERVRMMQWWADYLDELESKNSRVVSIGGREASLLSIHPREGLVWKPTATVRQTTSRTSNLRKSH,failed
10,MVMIMELLYAITAFILGMLHALEPGHGKSVVAAYILGTKADLKDAILLGTTITISHTAVIFLLGILSIYLLESLNVDVVHDMMSVVGGLILIAVGIWIIRSYLHPHEHKVDTKKGVITLGLSAGLVPCPAALAVLLLSISSGNLIDGLIYVAIFSIGLAISLTGLAVAFVESKELIKKYVGNRKVSKLPLISGSIIILIGLYTIAHPILEHAIV,failed
11,MAVISPATRFAPPLNRPFHRRSILASFHSSSRNFLFLGKPTPSSTIVSVRCQKPVSDGVSSMESMNHVASSVSSSIDFLTLCHRLKGINGPESIADHMYRMALMALIAGDLTGVDRERCIKMAIVHDIAEAIVGDITPSDGVPKEEKSRRETAALKEMCEVLGGGLRAEEITELWLEYENNASLEANIVKDFDKVEMILQALEYEAEHGKVLDEFFISTAGKFQTEIGKSWAAEINARRKSQLTNRQR,failed
12,MDRRDAMGLSGSGSYYIHRGLSGSGPPTFHGSPQQQQGLRHLPNQNSPFGSGSTGFGSPSLHGDPSLATAAGGAGALPHHIGVNMIAPPPPPSETPMKRKRGRPRKYGQDGSVSLALSSSSVSTITPNNSNKRGRGRPPGSGKKQRMASVGELMPSSSGMSFTPHVIAVSIGEDIASKVIAFSQQGPRAICVLSASGAVSTATLIQPSASPGAIKYEGRFEILALSTSYIVATDGSFRNRTGNLSVSLASPDGRVIGGAIGGPLIAASPVQVIVGSFIWAAPKIKSKKREEEASEVVQETDDHHVLDNNNNTISPVPQQQPNQNLIWSTGSRQMDMRHAHADIDLMRG,failed
13,MALKDYALEKEKVKKFLQEFYQDDELGKKQFKYGNQLVRLAHREQVALYVDLDDVAEDDPELVDSICENARRYAKLFADAVQELLPQYKEREVVNKDVLDVYIEHRLMMEQRSRDPGMVRSPQNQYPAELMRRFELYFQGPSSNKPRVIREVRADSVGKLVTVRGIVTRVSEVKPKMVVATYTCDQCGAETYQPIQSPTFMPLIMCPSQECQTNRSGGRLYLQTRGSRFIKFQEMKMQEHSDQVPVGNIPRSITVLVEGENTRIAQPGDHVSVTGIFLPILRTGFRQVVQGLLSETYLEAHRIVKMNKSEDDESGAGELTREELRQIAEEDFYEKLAASIAPEIYG,failed
14,MKTSLRLEDGTKNSLQIPIDLIIEIFLRLSVNSIARCRCVSKQWASTLSRPYFTELFLTRSLARPKLLFAYRKGSDYLFLSSPQLQNPDDDHKKSSPVVVNYHMHHILTLGSGNMSWRTIQCCIPHRSFDGGICIDGLIYYYAGVNNNDIVIVCFDVRSEEFRFIIGALHHGSLINYNGKLSLYLPSTVYSRFNGVIRSIKLWVLEDAKRQEWSEHTYILPAMHDIMKTTDLRCVGMTQTKEFVFWSIKGMRFYVFYYNIERNTIKKVEMQGMEAFKESNVYTFLDHVEDVKLMQFF,failed
15,MFLRIDRLQIELPMPKEQDPNAAAAVQALLGGRFGEMSTLMNYMYQSFNFRGKKALKPYYDLIANIATEELGHIELVAATINSLLAKNPGKDLEEGVDPESAPLGFAKDVRNAAHFIAGGANSLVMGAMGEHWNGEYVFTSGNLILDLLHNFFLEVAARTHKLRVYEMTDNPVAREMIGYLLVRGGVHAAAYGKALESLTGVEMTKMLPIPKIDNSKIPEAKKYMDLGFHRNLYRFSPEDYRDLGLIWKGASPEDGTEVVVVDGPPTGGPVFDAGHDAAEFAPEFHPGELYEIAKKLYEKAK,not failed
16,MASTIQALPQEVVYLITAGEVIDSFAAVVRELVENSLDAGANRIVVYLWPQQWRVRVADNGCGMNLDDLQQAASAHSTSKIRSSADLWKIHSLGFRGEALHSLTTLADVEIISRAPENVGWRVVYGDSGKAVHVEATAIAPGTVVTVSNLFASCAARRQGLPTTAQQMKAVQATIQQIALCHPQTTWQVWQNDRIWFTISPAATAGQLIPQFLPQLRPSDLQEIKLEIPNPENPQLSTNNKPNASALALVVGLPDRCHRHRPDWVRVAINGRMIKLPELEQTILAAFHRTLPRDRYPLCFVHLLISPDQINWNRNPAKTEIYLHDLSYWQEQVTQAINQALRISAANIPESVQTTRVSQLLKAAEEKGNYNFNPRNANPADNTQNYLKAVAQVSNTYIVAEHPGGMWLVEQHIAHERVLYEQLCDNWRLIPVEPPIILYQLSPAQVAQLQRIGLDIDIFGEQLWAVRNLPAMLQQREDCAEAILELSWGGDLQTAQVAVACRSAIRNGTPMSLPEMQKLLDDWQRTRNPRTCPHGRPIYLSLDESSLSRFFRRHWVIGKSHGI,failed
17,MTTFNYTNILTQAVDELSESQSYKGLFHQHKDGDPLPSAKSLYKIVELARAIIFPGYFGNSTVNSHTINYHIGVNVETLFGLLTEQILAGLCFGQENSKNATDDNEPCRETASLLAARFISKLPELRRILATDVEAAYYGDPAATCFGEIISCYPAIRAISNYRIAHELLILGVPLIPRFITEMAHSETGIDIHPGAQIGHHFTIDHGTGVVIGATSIIGNNVKLYQGVTLGAKSFPLDNNGNPIKGIPRHPILEDDVIVYSNATILGRVTIGKGATVGGNIWVTENVPAGSRIVQRKNKDELEHHHHHH,not failed
18,MSLIYAQILAGGKGTRMGNVSMPKQFLPLNGKPIIVHTVEKFILNTRFDKILISSPKEWMNHAEDNIKKYISDDRIVVIEGGEDRNETIMNGIRFVEKTYGLTDDDIIVTHDAVRPFLTHRIIEENIDAALETGAVDTVIEALDTIVESSNHEVITDIPVRDHMYQGQTPQSFNMKKVFNHYQNLTPEKKQILTDACKICLLAGDDVKLVKGEIFNIKITTPYDLKVANAIIQERIANEGHHHHHH,not failed
19,MKKILALILIIYSSSVFSHFSHFEPRIIHLYQDNQDTIILMRMPLPLILLDENWKGIDSKQNIPYTNKVNNSGYLIDPEKITKNLDDFKKSITPGYTIKKNGVVQNYHIESINIFNSDDRKPFSSLKTAEENFTSDVTIRPSATKLFDAGIDIKLRISNTSVINDDISISSILGDKFNAINKLANIINLHRDIANESVTTTLGILDYSSTHLPSMTQQLINGFSDGFIHILIGLDHVLFVLLLFYSAASFLKLLSLATAFTFGHSFSLFFGDNIAIASPIFIPGIELLIALTIAFTAIALLLKKAQHLGTTPLLVIGVIHGFGFSFVFNELEKEGAQTSITNLLSFNFGIEAGQLFIYALAFTMTILIKKQTVLVKKLPYYVSVCALVISAYWVVTRSMPLFDYIVI,failed
